Assay results: the nanobody polyreactivity screen of Harvey et al. (2022)

assay: yeast display, Sf9 membrane polyspecificity reagent, FACS + sequencing; frameworks hold sequencing errors
How it was run: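 Using colony PCR, genes from sorted yeast display clones were amplified, then sequenced on MiSeq at 2 × 250 and filtered by CDR length. The clones had been stained with 10% biotinylated, detergent-solubilized Sf9 membrane reagent for 1 hour at 4 °C and sorted by FACS into low and high (top ~1%) gates on anti-HA and streptavidin fluorescence. Polyreactivity labels come from the gate of origin.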

| Sequence | polyreactivity (PSR sort gate) |
| --- | --- |
| QVQLVESGGGLVQAGGSLRLSCAASGRIFNTYAMGWYRQAPGKERELVAAITSSGGSTYYADSVKGRFTISRDNEKNTVYLQLNSLKPEDTAVYYCAKPWYVRGGSSKYVYWGQGTQVTVSS | high polyreactivity |
| QVQLVESGGGLVQAGGSLRLSCAASGRIFNTYAMGWYRQAPGKERELVAVISSRGGSTYYADSVKGRFTISRDNAKNTVYLQMNSLKPEDTAVYYCAARGRGQPFVRYDYWGQGTQVTVSS | high polyreactivity |
| QVQLVESGGGLVQAGGSLRLSCAASGRIFNWYAMGWYRQAPGKERELVARISSGDITSYADSVKGRFTISRDNAKNTVYLQMNRLKPEDTAVYYCDARQWFLYDYWGQGTQVTVSS | low polyreactivity |
| QVQLVESGGGLVQAGGSLRLSCAASGRIFNYYDMGWYRQPPGKERELVAAISWRGTSTRYADSVKGRFTISRDNAKNTVYLQMNSLKPEDTAVYYCADDDYARRFSFKYDYWGQGTQVTVSS | high polyreactivity |
| QVQLVESGGGLVQAGGSLRLSCAASGRIFNYYTMGWYRQAPGKEREFVAAISRSGGSTFYADSVKGRFTISRDNAKNTVYLQMNSLKPEDTAVYYCAARSYSRPDGGYVQLDYWGQGTQVTVSS | high polyreactivity |
| QVQLVESGGGLVQAGGSLRLSCAASGRIFPANAMGWYRQAPGKERELVAAIDYDGGSTYYADSVKGRFTISRDNAKNTVYLQMNSLKPEDTAVYYCAADFYDYEGSYYDYYWGQGTQVTVSS | high polyreactivity |
| QVQLVESGGGLVQAGGSLRLSCAASGRIFPAYAMGWYRQAPGKERELVASIRRGGITYADSVKGRFTISRDNAKNTVYLLMNSLKPEDTAVYYCNAYVNRATAGRYYSWGQGTQVTVSS | low polyreactivity |
| QVQLVESGGGLVQAGGSLRLSCAASGRIFPAYAMGWYRQAPWKERELVASIRRGGITYADSVKGRFTISRDNAKNTVYLQMNSLKPEDSAVYYCNADYRGWGYHMYYWGQGTQVTVSS | low polyreactivity |
| QVQLVESGGGLVQAGGSLRLSCAASGRIFPAYTMGWYRQAPGKERELVAAITWSGGSTYYADSVKGRFTISRDNAKNTVYLQMNSLKPEDTAVYYCAADKLYWYYGTEYGYWGQGTQVTVSS | low polyreactivity |
| QVQLVESGGGLVQAGGSLRLSCAASGRIFPAYVMGWYRQAPGKERELVATIDNGGGTYYADSVKGRFTISRDNAKNTVYLQMNSLKPEDPAVYYCARDRHVRWGLKMDYWGQGTQVTVSS | low polyreactivity |
| QVQLVESGGGLVQAGGSLRLSCAASGRIFPDYDMGWYRQAPGKERELVAAITQRGGSTYADSVKGRFTISRDNAKNTVYLQMNSLKPEDTSVYYCAREYYEGYEYWGQGTQVTVSS | low polyreactivity |
| QVQLVESGGGLVQAGGSLRLSCAASGRIFPFYAMGWYRQAPGKERELVAAISSSGGSTYYADSVKGRFTISRDHAKNTVYFQMNSLKPEDTAVYYCAATRNSDGMGYWGQGTQVTVSS | low polyreactivity |
| QVQLVESGGGLVQAGGSLRLSCAASGRIFPFYVMGWYRQAPGKERELVATINWSGGSTYYADSVKGRFTISRDNAKNTVYLQMNSLKPEDNAVYYCNAAPSDDYDYWGQGTQVTVSS | low polyreactivity |
| QVQLVESGGGLVQAGGSLRLSCAASGRIFPGNAMGWYRQAPGKERELVADITSGGSTNYADSVKGRFTISRDNAKNTVYLQMNSLKPEDTAVYYCAVRQIYQTSDHRLQYDYWGQGTQVTVSS | low polyreactivity |
| QVQLVESGGGLVQAGGSLRLSCAASGRIFPGYAMGWYRQAPGKERELVAAISERGGSTYYADSVKGRFTISRDNAKNTVYLQMNSLKPEDTAVYYCAAIWRGGYNYWGQGTQVTVSS | low polyreactivity |
| QVQLVESGGGLVQAGGSLRLSCAASGRIFPGYAMGWYRQAPGKERELVAAISGSGVRTYYADSVKGRFTISRDNAKNTVYLQMNSLKPEDTAVYYCAADSKIRTKLDYWGQGTQVTVSS | low polyreactivity |
| QVQLVESGGGLVQAGGSLRLSCAASGRIFPGYTMGWYRQAPGKEREFVAAISYSGGSTYADSVKGRFTISRDNAKNTVYLQMNSLKPEDTAVNYCAVVLQHWLDMYYWGQGTQVTVSS | low polyreactivity |
| QVQLVESGGGLVQAGGSLRLSCAASGRIFPGYTMGWYRQAPGKERELVAGISRSGGRTYYADSVKGRFTISRDNAKNTVYLQMNSLKPEDTAVYYCAADGYPGRRYTGMDYWGQGTQVTVSS | high polyreactivity |
| QVQLVESGGGLVQAGGSLRLSCAASGRIFPHNAMGWYRQAPGNERELVAAISSHGGSTYYAVSVKGRFTISRDNAKNTVYLQMNSLKPEDTAVYYCAKYRYFAGDGDYWGQGTQVTVSS | low polyreactivity |
| QVQLVESGGGLVQAGGSLRLSCAASGRIFPHYAIGWYRQAPGKERELVAAISTSGGSTYYADSVKGRFTISRDIAKNTVYLQLNCLKPEDTEVYYCAARGYQYGFYYLVIYDYWGQGTQVTVSS | low polyreactivity |
| QVQLVESGGGLVQAGGSLRLSCAASGRIFPKNTMGWYRQAPGKERELVAAINWNGGRTYYADSVKGRFTISRDNAKNTVYLQMNSLKPEDTAVYYCAKDGYWDFDYWGQGTQVTVSS | low polyreactivity |

| Sequence | polyreactivity (PSR sort gate) |
| --- | --- |
| QVQLVESGGGLVQAGGSLRLSCAASGRIFPLYAMGWYRQAPGKERELVADISVTGTSTYYADSVKGRFTISRDNAKNTVYLQMNSLKPEDTAVYYCAADLWAYGPLWRWSRADYDYWGQGTQVTVSS | low polyreactivity |
| QVQLVESGGGLVQAGGSLRLSCAASGRIFPNYVMGWYRQAPGKERELVAAISRRGGRTYYADSVKGRFTISRDNAKNTVYLQMNSLKPEDTAVYYCARVPTRAEDVAGWTGMDYWGQGTQVTVSS | high polyreactivity |
| QVQLVESGGGLVQAGGSLRLSCAASGRIFPQNAMGWYRQAPGKERELVAVITGNGSTYYADSVKGRFTISRDNAKNTVYLQMNSLKPEDTAVYYCAARVSWPYHRGARDYWGQGTQVTVSS | low polyreactivity |
| QVQLVESGGGLVQAGGSLRLSCAASGRIFPRYAMGWYRQAPGKERELVARITRRGGITYYADSVKGRFTISRDNAKNTVYLQMNSLTPEDTAVYYCNVDYYRGGDFSYGYDYWGQGTQVTVSS | high polyreactivity |
| QVQLVESGGGLVQAGGSLRLSCAASGRIFPSNVMGWYRQAPGKERELVASISARGGSTYYADSVKGRFTISRDNAKNTGYLQMNSLKPEDTAVYYCHKRRSNGYSQHKLDYWGQGTQVTVSS | low polyreactivity |
| QVQLVESGGGLVQAGGSLRLSCAASGRIFPSYAMGWYRQAPGKERELVAAISRSGGRTYYADSVKGRFTISRDNAKNTVYLQMNSLKPEDTAVYYCYPYYIASTFDYWGQGTQVTVSS | high polyreactivity |
| QVQLVESGGGLVQAGGSLRLSCAASGRIFPSYAMGWYRQAPGKERELVAAISSSGGRTYYADSVKGRFTISRDNAKNTVYLQKNSLKPEDTAVYYCNARSPAYFYQWLYSFRYDYWGQGTQVTVSS | high polyreactivity |
| QVQLVESGGGLVQAGGSLRLSCAASGRIFPSYMGWYRQAPGKERELVARISNTGSTYYADSVKGRFTISRDNAKNTVYIQMNSLKPEDTAVYYCAAVYIFRVFSHPPYDYWGQGTQVTVSS | low polyreactivity |
| QVQLVESGGGLVQAGGSLRLSCAASGRIFPTNAMGWYRQAPGKERELVAGISSSGGSTYYADSVKGRFTISRDNAKNTVYLQMNSLKPEDTAVYYCNAVGYQYLRVYYWGQGTQVTVSS | low polyreactivity |
| QVQLVESGGGLVQAGGSLRLSCAASGRIFPTNAMGWYRQPPGKEREFVAAITWRGGSTYYADSVKGRFTISRDNAKNTVYLQMNSLKPEDTAVYYCAAELDYFPGYDYWGQGTQVTLSS | low polyreactivity |
| QVQLVESGGGLVQAGGSLRLSCAASGRIFPTYAMGWYRQAPGKERELVAAITWRGGRTYYADSVKGRFTISRDNAKNTVYLQMNSLKPEDTAVYYCAAGWLTRSYEYDYWGQGTQVTVSS | high polyreactivity |
| QVQLVESGGGLVQAGGSLRLSCAASGRIFPVNALGWYRQAPGKEREFVAAISYSGVSTRYADSVKGRFTISRDKAKNTVYLQMNSLKPEDTAVYYCAARMSVREDYWGQGTQVNVSS | high polyreactivity |
| QVQLVESGGGLVQAGGSLRLSCAASGRIFPVNAMGWYRQAPGKERELVATISRGGNTYYADSVKGRFTISRDNAKNTVYLQMNSLKPEDTAVYYCNVDRGNPVPPSEYWGQGTQVTVSS | low polyreactivity |
| QVQLVESGGGLVQAGGSLRLSCAASGRIFPVYAMGWYRQAPGKERELVAAISRRGGSTYYADSVKGRFTISRDNAKNTVYLQMNSLKPEDTAVYYCAATAYYYWWWYGGDMDYWGQGTQVTLSS | high polyreactivity |
| QVQLVESGGGLVQAGGSLRLSCAASGRIFPWYAMGWYRQAPGKERELVAAISWSGGRTYYADSVKGRFTISRDNAKITVYLQMNSLKPEDTAVYYCNTGTSGRFLSFGNFDYWGQGTQVTVSS | high polyreactivity |
| QVQLVESGGGLVQAGGSLRLSCAASGRIFPYKAMGWYRPAPGKERELVAAITSSGGSTYYADSVKGRFTISRDNAKNTVYLQMNSLKPEDTAVYYCNKDIERYVRIYDSWGQGTQVTVSS | low polyreactivity |
| QVQLVESGGGLVQAGGSLRLSCAASGRIFPYNAMGWYRQAPGKERELVASITGSGGSTYYADSVKGRFTISRDKAKKTVYLQMNSLKPEDTAVYYCAVQGGYFYTWDGDYWGQGTQVTVSS | low polyreactivity |
| QVQLVESGGGLVQAGGSLRLSCAASGRIFPYNTMGLYRQAPGKERELVAAISRRGGSTYYADSVKGRFTISRDNAKNTVYLQMNSLKPEDTAVYYCNAVKPRDYGGLAYDYWGQGTQVTVSS | high polyreactivity |
| QVQLVESGGGLVQAGGSLRLSCAASGRIFPYNVMGWYRQAPGKERELVAAISWSGGRTYYADSVKGRFTISRDNAKKTVYLQMNSLKPEDTAVYYCNTRTLVAMGYWGQGTEVTVSS | high polyreactivity |
| QVQLVESGGGLVQAGGSLRLSCAASGRIFPYYAMGWYRQAPGKERELVAAINRGGSTNYADSVKGRFTISRDNAKNTVYLQMNSLKPEDTAVYYCAALSRTHGVSYDYWGQGTQVTVSS | high polyreactivity |
